Legend:
[1] = molecular target: RAGE 82G/82S on human mononuclear phagocytes of heterozygous subjects (human) (UniProt Q15109); experiment: cell-based or functional assay
[2] = molecular target: human RAGE 82G (common allele, full-length) (human) (UniProt Q15109); experiment: cell-based or functional assay
[3] = molecular target: human RAGE 82S (variant allele, G82S) (human) (UniProt Q15109); experiment: cell-based or functional assay
[4] = molecular target: human RAGE 82G (common allele, full-length) (human) (UniProt Q15109); experiment: radioligand binding of 125I-EN-RAGE on stably transfected CHO cells, equilibrium analysis by Klotz and Hunston
[5] = molecular target: human RAGE 82S (variant allele, G82S) (human) (UniProt Q15109); experiment: as above

B1: EN-RAGE (Extracellular Newly-Identified RAGE binding protein) (ligand, from a related filing)
chain: TKLEDHLEGIINIFHQYSVRVGHFDTLNKRELKQLITKELPKTLQNTKDQPTIDKIFQDLDADKDGAVSFEEFVVLVSRVLKTAHIDIHK
EN-RAGE-mediated MMP-9 activity, MPs bearing RAGE 82G/82S against RAGE 82G [1]: 1.9 fold | IL-6 in EN-RAGE-stimulated MPs, RAGE 82G/82S compared with RAGE 82G [1]: 2.9 fold | IL-6 in culture supernatant (ELISA), human MPs bearing RAGE 82G/82S exposed to EN-RAGE [1]: 160 pg/mL | MMP-9 activity (zymography), human MPs bearing RAGE 82G/82S, EN-RAGE against baseline [1]: 4.3 fold | TNF-alpha in EN-RAGE-stimulated MPs, RAGE 82G/82S compared with RAGE 82G [1]: 1.8 fold | TNF-alpha in culture supernatant (ELISA), human MPs bearing RAGE 82G/82S exposed to EN-RAGE [1]: 850 pg/mL | phosphorylated MEK 1/2, human MPs, EN-RAGE against unstimulated cells [1]: 4.5 fold | phosphorylated p44 and p42 MAP kinases, human MPs, EN-RAGE against unstimulated cells [1]: 4.3 fold | IL-6 in culture supernatant (ELISA), human MPs bearing RAGE 82G exposed to EN-RAGE [2]: 55 pg/mL | MMP-9 activity (zymography), human MPs bearing RAGE 82G, EN-RAGE against basal [2]: 2.3 fold | NF-kB nuclear binding activity by EMSA, CHO transfectants, EN-RAGE against BSA [2]: 2.4 fold | TNF-alpha in culture supernatant (ELISA), human MPs bearing RAGE 82G exposed to EN-RAGE [2]: 470 pg/mL | activation of MEK 1/2, human MPs bearing RAGE 82G, EN-RAGE against unstimulated cells [2]: 2.6 fold | activation of p44/p42 MAP kinases, human MPs bearing RAGE 82G, EN-RAGE against unstimulated cells [2]: 2.3 fold | phosphorylated MEK 1/2 by immunoblotting, CHO transfectants, EN-RAGE 10 ug/ml against BSA [2]: 2.2 fold | phosphorylated p44/42 MAP kinases by immunoblotting, CHO transfectants, EN-RAGE 10 ug/ml against BSA [2]: 1.9 fold | NF-kB gel shift band intensity by EMSA, CHO transfectants, EN-RAGE against BSA [3]: 5.1 fold | RAGE-mediated NF-kB activation, RAGE 82S compared with 82G [3]: 2.1 fold | phosphorylated MEK 1/2 by immunoblotting, CHO transfectants, EN-RAGE 10 ug/ml against BSA [3]: 3.6 fold | phosphorylated p44/42 MAP kinases by immunoblotting, CHO transfectants, EN-RAGE 10 ug/ml against BSA [3]: 4.1 fold | phosphorylation of MEK 1/2, CHO cells with RAGE 82S compared with RAGE 82G [3]: 1.6 fold | phosphorylation of p44/p42 MAP kinases, CHO cells with RAGE 82S compared with RAGE 82G [3]: 2.2 fold | Kd [4]: 122 nM | Kd [5]: 77 nM

From patent US8067371
